In the assay the target is zebrafish ΔP2X4-B (zebrafish) (UniProt F8W463). The assay is described as follows: crystal structure.

What is called stoichiometry N is the number of molecules, sites or subunits per partner or assembly.

On to “zebrafish ΔP2X4-B (from UniProt F8W463 1-389) (receptor)”, for which the stoichiometry N was 3.

Source of the values: publication PMC3391165.
